Numbering of substitutions follows the chain as printed.
T1: mPRND
T1 construct: also called Mouse PRND; mouse doppel, recombinant, C-terminal His tag
T1 single chain: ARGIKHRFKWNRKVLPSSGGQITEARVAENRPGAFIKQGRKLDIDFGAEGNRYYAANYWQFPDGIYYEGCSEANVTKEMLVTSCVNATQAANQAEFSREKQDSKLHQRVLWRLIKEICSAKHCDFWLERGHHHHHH

B1: murine monoclonal antibody produced by hybridoma cell line clone 7A11 (antibody, V domains shown)
VH: QVQLQQPGAELVRPGASVKLSCKASGYTFTSYWINWVKQRPGQGLEWIGNIYPSDSYTNYNQKFKDKATLTVDKSSSTAYMQLSSPTSEDSAVYYCTRSMITWGQGTTLTVSS
VL: DVLMTQTPLSLPVSLGDQASISCRSSQSIVHSNGNTYLEWYLQKPGQSPKVLIYKVSNRFSGVPDRFSGSGSGTDFTLKINRVEAEDLGVYYCFQGSHVPLTFGAGTKLELK
notes: also called hPrnd #7A11; KCLRF-BP-00498
B2: murine monoclonal antibody produced by hybridoma cell line clone 2C10 (antibody, V domains shown)
VH: EVQLQESGPSLVKPSQTLSLTCSVTGDSITSGYWNWIRKFPGNKLEYMGYIRYSGSAYYNPSLKSRISITRDTSKNQYYLQLNSVTTEDTATYYCARYPYYGSYWYFDVWGAGTTVTVSS
VL: DVQITQSPSYLAASPGETITLNCRASKSISKYLAWYQEKPGKTNKLLIYSGSTLQSGIPSRFSGSGSGSDFTLTISSLEPEDFAMYYCQQHSEYPWTFGGGTKLEIK
notes: also called hPrnd #2C10; KCLRF-BP-00491
B3: murine monoclonal antibody produced by hybridoma cell line clone 4H7 (antibody, V domains shown)
VH: DVQLQESGPDLVKPSQSLSLTCTVTGYSITSGYSWHWIRQFPGNKLEWMGYIHYSGNTNYNPSLKSRISITRDTSKNQFFLQLNSVTTEDTATYSCAMRTYYYGPLDYWGQGTTLTVSS
VL: not shown
notes: also called hPrnd #4H7; KCLRF-BP-00496
B4: murine monoclonal antibody produced by hybridoma cell line clone 7G3 (antibody, V domains shown)
VH: EIQLQQTGPELVKPGASVKISCKASGYSFTDYIMLWVKQSHGKSLEWIGNINPYYGSTSYNLKFKGKATLTVDKSSSTAYMQLNSLTSEDSAVYYCARRNYYGNYDAMDYWGQGTSVTVSS
VL: QIVLTQSPAIMSASLGERVTMTCTASSSVSSSYLHWYQQKPGSSPKLWIYSTSNLASGVPARFSGSGSGTSYSLTISSMEAEDTATYYCHQYHRSPLTFGAGTKLELK
notes: also called hPrnd #7G3; KCLRF-BP-00500
B5: Human monoclonal antibody A12 (antibody, V domains shown)
VH: not shown
VL: DIQMTQSPSSLSASVGDRVTITCRASQSIGSYLNWYQQKPGKAPKLLIYAASTLQSGVPSRFSGSGSGTDFTLTISSLQPEDFATYYCQQSYSFPWTFGQGTKVEIKR
B6: Human monoclonal antibody E9 (antibody, human IgG1, kappa, V domains shown)
VH: QVQLVQSGAEVKKPGSSVKVSCKASGGTFSSYYMHWVRQAPGQGLEWMGRISPGGGGTIYAQKFQGRVTITADESTSTAYMELSSLRSEDTAVYYCARAQSEGLSYYFDVWGQGTLVTVSS
VL: B5 VL with G30R, S31N, T53N, Y92S, W96L
B7: Human monoclonal antibody B2 (antibody, V domains shown)
VH: not shown
VL: B5 VL with G30S, S31N, T53R
B8: murine monoclonal antibody produced by hybridoma cell line clone 2B6 (antibody, V domains shown)
VH: QVQLQQSGAELVRPGVSVKLSCKFSGFTFTDYAMHWVRQSHAKSLAWIGVISSYYGDASYNQKFTGKATMTVDKSSSTAYMELARLTSEDSAIYYCARRLRGAMDYWGQGTSVTVSS
VL: DIVMTQSQKFMSTSVGDRVSVTCKASQNVDANVAWYQQKPGQSPKALIYSASYRYSGVPYRFTGSGSGTDFTLTISNVQSADLAEYFCQQYNSYPFTFGSGTKLELK
notes: also called hPrnd #2B6; KCLRF-BP-00490
B9: murine monoclonal antibody produced by hybridoma cell line clone 2E9 (antibody, V domains shown)
VH: not shown
VL: DVQMTQTTSSLSASLGDRVTISCSASRGISNYLNWYQQKPDGTVKLLIYYTSSLHSGVPPRFSGSGSGTDYSLTISNLEPEDIATYYCQQYSKLPSTFGGGTKVEIK
notes: also called hPrnd #2E9; KCLRF-BP-00493

Assays:
[1] = molecular target: doppel (Prnd) recombinant protein immobilized on the SPR sensor chip; assay: SPR, BIAcore T100, recombinant protein immobilized on chip
Description: Affinity measurements of anti-doppel monoclonal antibodies produced by the clones described herein with Prnp and Prnd (doppel) were performed by the surface plasmon resonance on a BIAcore T100 (GE Healthcare). Using the standard EDAC-NHS coupling method, recombinant proteins were immobilized at a density of 4000-7000 onto a sensor chip (GE Healthcare). Measurements were performed at a flow rate of 20 μL/min, and 50 mM NaOH was used to regenerate the chip surface after each cycle of analysis. Each concentration was analyzed in duplicate. Kinetic analysis of the data obtained was performed using BIAcore T100 evaluation software (GE Healthcare).

mPRND [2] = molecular target: T1, mPRND; assay: ELISA, […], antibody 0-100 nM; […] (nM)'
[3] = molecular target: T2, Doppel on HCT116 cells, HUVEC and Dpl k/d HUVEC (human, UniProt Q9UKY0); assay: flow cytometry, '% Doppel Ab binding cell' on HCT116, HUVEC and doppel knock-down HUVEC (24h, 48h); no control antibody and no concentration shown
T2 construct: endogenous, on the surface of HCT116 cells, HUVEC and doppel knock-down HUVEC; also called PRND

[4] = molecular target: T3, human doppel on human tumor endothelial cells (human, UniProt Q9UKY0 26-152); assay: flow cytometry on human tumor endothelial cells, cancer cells and doppel knock-down cells
T3 construct: whole, on cells; also called PRND; hPRND

mPRND [5] = molecular target: T1, mPRND; assay: ELISA, […], antibody 0-100 nM; […] (nM)'
[6] = molecular target: T3, human doppel on human tumor endothelial …; assay: flow cytometry on HCTEC (human colonic tumor endothelial cells), fluorescent secondary antibody; no control bar and no antibody concentration shown
mPRND [7] = molecular target: T1, mPRND; assay: ELISA, […], antibody 0-100 nM; […] (nM)'; […]

| Binder | Kd [1] | Kd (mPRND [2]) | binding result [3] | binding result [4] | Kd (mPRND [5]) | binding result [6] | Kd (mPRND [7]) |
| --- | --- | --- | --- | --- | --- | --- | --- |
| B1 | 0.253 nM | 0.876 nM |  |  |  |  |  |
| B2 | 8.76 nM |  | binds | binds |  |  |  |
| B3 | 0.0287 nM |  |  |  | 0.868 nM | binds |  |
| B4 | 10.6 nM |  | binds |  |  | binds | 25.9 nM |
| B5 | 9.2 nM |  | binds | binds |  |  |  |
| B6 | 4.41 nM |  |  |  |  |  |  |
| B7 | 7.99 nM |  | binds | binds |  |  |  |
| B8 | 0.292 nM | 6.52 nM | binds |  |  | binds |  |
| B9 | 4.05 nM |  |  |  |  | binds |  |
